Where two headings read alike, the source gives them in different places. [ ]: non-standard residue; d: D form. Nle = CCCC[C@H](N)C(=O)O; Orn = NCCC[C@H](N)C(=O)O; Dab = NCC[C@H](N)C(=O)O; Sar = CNCC(=O)O
Experiments:
[1] = biological target: T1, human melanocortin-1 receptor (hMCR-1) expressed by the human melanoma cell line HBL (human, UniProt Q01726 1-317); experiment: cell-based or functional assay
[2] = biological target: T2, recombinant human melanocortin-4 receptor (hMCR-4) in membrane homogenates of HEK-293 cells (human, UniProt P32245 1-332); experiment: competitive inhibition of [I125]-NDP-alpha-MSH, hMCR-4 HEK-293 membranes
T2 construct: whole, on cells; Used as membrane homogenates, not intact cells; also called MC-4
Description: (§1) A competitive inhibition binding assay was performed using membrane homogenates prepared from HEK-293 cells that express recombinant hMCR-la or hMCR-4 (in each instance where the h prefix refers to human), or alternatively membrane homogenates from B16-F10 mouse melanoma cells containing endogenous murine MCR-1. In the examples that follow, all MCR-1 and MCR-4 values are for human recombinant receptors, unless otherwise noted. Assays were performed in 96 well polypropylene round-bottom plates (VWR catalog number 12777-030).
(§2) Membrane homogenates were incubated with 0.1 nM [I¹²⁵]-NDP-α-MSH (Perkin Elmer) and increasing concentrations of test peptides of the present invention in buffer containing 25 mM HEPES buffer (pH 7.5) with 100 mM NaCl, 2 mM CaCl₂, 2 mM MgCl₂, 0.3 mM 1,10-phenanthroline, and 0.2% bovine serum albumin. After incubation for 90 minutes at 37° C., the assay mixture was filtered onto GF/B Unifilter plates (Perkin-Elmer catalog number 6005177) and washed with 3 mL of ice-cold buffer per well. Filters were air dried and 35 μL of scintillation cocktail added to each well. Plates were counted in a Microbeta counter for bound radioactivity. […] Maximal specific binding (100%) was defined as the difference in radioactivity (cpm) bound to cell membranes in the absence and presence of 1 μM NDP-α-MSH. Each assay was conducted in duplicate and the actual mean values are described, with results less than 0% reported as 0%. Ki values for peptides of the present invention were determined using Graph-Pad PRISM® curve-fitting software.

[3] = biological target: T1, human melanocortin-1 receptor (hMCR-1) …; experiment: cell-based or functional assay; remark: listed apart in the source
[4] = biological target: T3, recombinant human melanocortin-1 receptor (hMCR-1a) in membrane homogenates of HEK-293 cells (human, UniProt Q01726 1-317); experiment: competitive inhibition of [I125]-NDP-alpha-MSH, hMCR-1 HEK-293 membranes
T3 construct: whole, on cells; Used as membrane homogenates, not intact cells; also called hMCR-la; MC-1
Description: as §1, §2

[5] = biological target: T1, human melanocortin-1 receptor (hMCR-1) …; experiment: cell-based or functional assay; remark: listed apart in the source
[6] = biological target: T1, human melanocortin-1 receptor (hMCR-1) …; experiment: cell-based or functional assay; remark: listed apart in the source
[7] = biological target: T1, human melanocortin-1 receptor (hMCR-1) …; experiment: cell-based or functional assay; remark: listed apart in the source
[8] = biological target: T1, human melanocortin-1 receptor (hMCR-1) …; experiment: cell-based or functional assay; remark: listed apart in the source

T3 sequence (Q01726 whole entry): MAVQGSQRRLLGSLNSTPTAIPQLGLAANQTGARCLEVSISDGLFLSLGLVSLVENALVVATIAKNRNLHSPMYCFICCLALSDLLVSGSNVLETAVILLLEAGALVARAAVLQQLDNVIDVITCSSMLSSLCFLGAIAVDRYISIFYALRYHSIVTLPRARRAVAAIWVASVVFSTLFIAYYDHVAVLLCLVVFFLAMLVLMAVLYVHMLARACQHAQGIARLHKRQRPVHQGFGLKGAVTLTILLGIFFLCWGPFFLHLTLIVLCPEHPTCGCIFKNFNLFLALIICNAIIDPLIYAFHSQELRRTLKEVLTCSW
T1 sequence (Q01726 whole entry): as above
T2 sequence (P32245 whole entry): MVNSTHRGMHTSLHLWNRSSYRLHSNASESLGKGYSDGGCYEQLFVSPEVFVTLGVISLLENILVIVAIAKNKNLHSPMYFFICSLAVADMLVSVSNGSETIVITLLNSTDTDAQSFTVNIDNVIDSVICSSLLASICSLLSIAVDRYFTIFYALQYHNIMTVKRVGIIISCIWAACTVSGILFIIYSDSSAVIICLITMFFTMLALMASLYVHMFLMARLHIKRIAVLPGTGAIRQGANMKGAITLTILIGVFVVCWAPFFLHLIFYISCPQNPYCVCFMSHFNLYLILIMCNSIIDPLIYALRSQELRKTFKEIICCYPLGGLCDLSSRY

Binder	Ki [2] [nM]	Ki [4] [nM]	further results
Ac-[Nle]AH[dF]R[Sar]W-NH2 (SMILES CCCC[C@H](NC(C)=O)C(=O)N[C@@H](C)C(=O)N[C@@H](Cc1c[nH]cn1)C(=O)N[C@H](Cc1ccccc1)C(=O)N[C@@H](CCCNC(=N)N)C(=O)N(C)CC(=O)N[C@@H](Cc1c[nH]c2ccccc12)C(N)=O) [Ac-Nle-Ala-His-D-Phe-Arg-Sar-Trp-NH2]			MC-1 EC50 (average; cAMP HBL) [1]: 0.17 nM
Ac-[Nle]H[dF]RAW-NH2 (SMILES CCCC[C@H](NC(C)=O)C(=O)N[C@@H](Cc1c[nH]cn1)C(=O)N[C@H](Cc1ccccc1)C(=O)N[C@@H](CCCNC(=N)N)C(=O)N[C@@H](C)C(=O)N[C@@H](Cc1c[nH]c2ccccc12)C(N)=O, synthetic linear peptide) [Ac-Nle-His-D-Phe-Arg-Ala-Trp-NH2]	3420	35	MC-1 EC50 (average; cAMP HBL) [3]: 1 nM
Ac-[Nle]A[Dab][dF]RAW-NH2 (SMILES CCCC[C@H](NC(C)=O)C(=O)N[C@@H](C)C(=O)N[C@@H](CCN)C(=O)N[C@H](Cc1ccccc1)C(=O)N[C@@H](CCCNC(=N)N)C(=O)N[C@@H](C)C(=O)N[C@@H](Cc1c[nH]c2ccccc12)C(N)=O) [Ac-Nle-Ala-Dab-D-Phe-Arg-Ala-Trp-NH2]			MC-1 EC50 (average; cAMP HBL) [5]: 0.165 nM
Ac-[Nle]A[Orn][dF]RAW-NH2 (SMILES CCCC[C@H](NC(C)=O)C(=O)N[C@@H](C)C(=O)N[C@@H](CCCN)C(=O)N[C@H](Cc1ccccc1)C(=O)N[C@@H](CCCNC(=N)N)C(=O)N[C@@H](C)C(=O)N[C@@H](Cc1c[nH]c2ccccc12)C(N)=O) [Ac-Nle-Ala-Orn-D-Phe-Arg-Ala-Trp-NH2]			MC-1 EC50 (average; cAMP HBL) [6]: 0.045 nM
Ac-[Nle]AH[dF]RGW-NH2 (SMILES CCCC[C@H](NC(C)=O)C(=O)N[C@@H](C)C(=O)N[C@@H](Cc1c[nH]cn1)C(=O)N[C@H](Cc1ccccc1)C(=O)N[C@@H](CCCNC(=N)N)C(=O)NCC(=O)N[C@@H](Cc1c[nH]c2ccccc12)C(N)=O, synthetic linear peptide) [Ac-Nle-Ala-His-D-Phe-Arg-Gly-Trp-NH2]	885	0.8	MC-1 EC50 (average; cAMP HBL) [7]: 0.038 nM
Ac-[Nle]AK[dF]RAW-NH2 (SMILES CCCC[C@H](NC(C)=O)C(=O)N[C@@H](C)C(=O)N[C@@H](CCCCN)C(=O)N[C@H](Cc1ccccc1)C(=O)N[C@@H](CCCNC(=N)N)C(=O)N[C@@H](C)C(=O)N[C@@H](Cc1c[nH]c2ccccc12)C(N)=O, synthetic linear peptide) [Ac-Nle-Ala-Lys-D-Phe-Arg-Ala-Trp-NH2]	10000	4	MC-1 EC50 (average; cAMP HBL) [8]: 0.1 nM
